Experimental data reported in article PMC10786891, “Massively parallel profiling of RNA-targeting CRISPR-Cas13d”.

T1: EsCas13d, nuclease-dead (Eubacterium siraeum, UniProt B0MS50, R295A;H300A;R849A;H854A)
T1 sequence: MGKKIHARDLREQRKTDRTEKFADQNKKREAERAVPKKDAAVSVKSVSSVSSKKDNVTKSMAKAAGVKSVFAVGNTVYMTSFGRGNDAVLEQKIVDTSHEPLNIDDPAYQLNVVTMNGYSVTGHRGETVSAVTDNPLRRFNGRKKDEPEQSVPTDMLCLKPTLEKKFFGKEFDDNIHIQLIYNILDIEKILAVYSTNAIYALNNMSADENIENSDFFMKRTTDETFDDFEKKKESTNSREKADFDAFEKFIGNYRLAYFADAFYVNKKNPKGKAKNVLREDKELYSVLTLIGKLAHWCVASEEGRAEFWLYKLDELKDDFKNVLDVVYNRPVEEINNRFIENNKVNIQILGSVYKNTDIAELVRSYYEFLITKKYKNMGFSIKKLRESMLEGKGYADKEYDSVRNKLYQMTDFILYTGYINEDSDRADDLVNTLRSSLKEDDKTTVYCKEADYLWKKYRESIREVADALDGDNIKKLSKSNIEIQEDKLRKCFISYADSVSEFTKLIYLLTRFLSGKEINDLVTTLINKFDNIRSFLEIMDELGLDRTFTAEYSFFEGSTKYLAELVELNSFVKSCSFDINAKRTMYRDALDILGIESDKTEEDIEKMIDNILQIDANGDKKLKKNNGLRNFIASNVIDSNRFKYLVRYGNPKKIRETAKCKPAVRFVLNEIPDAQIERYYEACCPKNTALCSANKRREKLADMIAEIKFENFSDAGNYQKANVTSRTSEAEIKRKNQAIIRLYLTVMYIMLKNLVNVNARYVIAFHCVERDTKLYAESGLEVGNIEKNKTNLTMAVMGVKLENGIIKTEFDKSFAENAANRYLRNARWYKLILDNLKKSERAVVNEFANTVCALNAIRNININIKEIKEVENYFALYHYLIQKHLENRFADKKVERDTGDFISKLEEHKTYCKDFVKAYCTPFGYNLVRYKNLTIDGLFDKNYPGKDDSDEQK

B1: target 3 A11G (mixed)
RNA 1: CACCCGUGCAAAAUUGCAGGGGUCUAAAACGACCUGAAUAUUUCAGAUCAAA
RNA 2: GGGAAUGGAUCCACAUCUACGAAUUCGUUUUUGAUCUGAAGUAUUCAGGUCUGCAGAUCGGAAGAGCACACGU
B2: target 3 G4C,U22C (mixed)
RNA 1: CACCCGUGCAAAAUUGCAGGGGUCUAAAACGACCUGAAUAUUUCAGAUCAAA
RNA 2: GGGAAUGGAUCCACAUCUACGAAUUCGUUCUUGAUCUGAAAUAUUCACGUCUGCAGAUCGGAAGAGCACACGU
B3: target 3 insA 3' of 14,insA 3' of 6 (mixed)
RNA 1: CACCCGUGCAAAAUUGCAGGGGUCUAAAACGACCUGAAUAUUUCAGAUCAAA
RNA 2: GGGAAUGGAUCCACAUCUACGAAUUCGUUUUUGAUCUGAAAAUAUUCAAGGUCUGCAGAUCGGAAGAGCACACGU
B4: target 3 G4C,A11G (mixed)
RNA 1: CACCCGUGCAAAAUUGCAGGGGUCUAAAACGACCUGAAUAUUUCAGAUCAAA
RNA 2: GGGAAUGGAUCCACAUCUACGAAUUCGUUUUUGAUCUGAAGUAUUCACGUCUGCAGAUCGGAAGAGCACACGU
B5: target 3 G3C,C6U (mixed)
RNA 1: CACCCGUGCAAAAUUGCAGGGGUCUAAAACGACCUGAAUAUUUCAGAUCAAA
RNA 2: GGGAAUGGAUCCACAUCUACGAAUUCGUUUUUGAUCUGAAAUAUUUAGCUCUGCAGAUCGGAAGAGCACACGU
B6: target 3 complement block 6-8 (mixed)
RNA 1: CACCCGUGCAAAAUUGCAGGGGUCUAAAACGACCUGAAUAUUUCAGAUCAAA
RNA 2: GGGAAUGGAUCCACAUCUACGAAUUCGUUUUUGAUCUGAAAUAAAGAGGUCUGCAGAUCGGAAGAGCACACGU
B7: target 3 C1G,A9G (mixed)
RNA 1: CACCCGUGCAAAAUUGCAGGGGUCUAAAACGACCUGAAUAUUUCAGAUCAAA
RNA 2: GGGAAUGGAUCCACAUCUACGAAUUCGUUUUUGAUCUGAAAUGUUCAGGUGUGCAGAUCGGAAGAGCACACGU
B8: target 3 A5G,U22A (mixed)
RNA 1: CACCCGUGCAAAAUUGCAGGGGUCUAAAACGACCUGAAUAUUUCAGAUCAAA
RNA 2: GGGAAUGGAUCCACAUCUACGAAUUCGUUAUUGAUCUGAAAUAUUCGGGUCUGCAGAUCGGAAGAGCACACGU
B9: target 3 insA 3' of 3,insU 3' of 3 (mixed)
RNA 1: CACCCGUGCAAAAUUGCAGGGGUCUAAAACGACCUGAAUAUUUCAGAUCAAA
RNA 2: GGGAAUGGAUCCACAUCUACGAAUUCGUUUUUGAUCUGAAAUAUUCAGGAUUCUGCAGAUCGGAAGAGCACACGU
B10: target 3 G4U,U22A (mixed)
RNA 1: CACCCGUGCAAAAUUGCAGGGGUCUAAAACGACCUGAAUAUUUCAGAUCAAA
RNA 2: GGGAAUGGAUCCACAUCUACGAAUUCGUUAUUGAUCUGAAAUAUUCAUGUCUGCAGAUCGGAAGAGCACACGU
B11: target 3 insC 3' of 9,insC 3' of 5 (mixed)
RNA 1: CACCCGUGCAAAAUUGCAGGGGUCUAAAACGACCUGAAUAUUUCAGAUCAAA
RNA 2: GGGAAUGGAUCCACAUCUACGAAUUCGUUUUUGAUCUGAAAUACUUCACGGUCUGCAGAUCGGAAGAGCACACGU
B12: target 3 insA 3' of 19,insU 3' of 1 (mixed)
RNA 1: CACCCGUGCAAAAUUGCAGGGGUCUAAAACGACCUGAAUAUUUCAGAUCAAA
RNA 2: GGGAAUGGAUCCACAUCUACGAAUUCGUUUUUGAAUCUGAAAUAUUCAGGUCUUGCAGAUCGGAAGAGCACACGU
B13: target 3 U2C,G14U (mixed)
RNA 1: CACCCGUGCAAAAUUGCAGGGGUCUAAAACGACCUGAAUAUUUCAGAUCAAA
RNA 2: GGGAAUGGAUCCACAUCUACGAAUUCGUUUUUGAUCUUAAAUAUUCAGGCCUGCAGAUCGGAAGAGCACACGU
B14: target 3 del4,del6 (mixed)
RNA 1: CACCCGUGCAAAAUUGCAGGGGUCUAAAACGACCUGAAUAUUUCAGAUCAAA
RNA 2: GGGAAUGGAUCCACAUCUACGAAUUCGUUUUUGAUCUGAAAUAUUAGUCUGCAGAUCGGAAGAGCACACGU
B15: target 3 insU 3' of 22,insG 3' of 8 (mixed)
RNA 1: CACCCGUGCAAAAUUGCAGGGGUCUAAAACGACCUGAAUAUUUCAGAUCAAA
RNA 2: GGGAAUGGAUCCACAUCUACGAAUUCGUUUUUUGAUCUGAAAUAUGUCAGGUCUGCAGAUCGGAAGAGCACACGU
B16: target 3 G4C,U20C (mixed)
RNA 1: CACCCGUGCAAAAUUGCAGGGGUCUAAAACGACCUGAAUAUUUCAGAUCAAA
RNA 2: GGGAAUGGAUCCACAUCUACGAAUUCGUUUUCGAUCUGAAAUAUUCACGUCUGCAGAUCGGAAGAGCACACGU
B17: target 3 insC 3' of 8,insU 3' of 4 (mixed)
RNA 1: CACCCGUGCAAAAUUGCAGGGGUCUAAAACGACCUGAAUAUUUCAGAUCAAA
RNA 2: GGGAAUGGAUCCACAUCUACGAAUUCGUUUUUGAUCUGAAAUAUCUCAGUGUCUGCAGAUCGGAAGAGCACACGU
B18: target 3 insU 3' of 22,insG 3' of 7 (mixed)
RNA 1: CACCCGUGCAAAAUUGCAGGGGUCUAAAACGACCUGAAUAUUUCAGAUCAAA
RNA 2: GGGAAUGGAUCCACAUCUACGAAUUCGUUUUUUGAUCUGAAAUAUUGCAGGUCUGCAGAUCGGAAGAGCACACGU
B19: target 3 insA 3' of 21,insU 3' of 5 (mixed)
RNA 1: CACCCGUGCAAAAUUGCAGGGGUCUAAAACGACCUGAAUAUUUCAGAUCAAA
RNA 2: GGGAAUGGAUCCACAUCUACGAAUUCGUUUUAUGAUCUGAAAUAUUCAUGGUCUGCAGAUCGGAAGAGCACACGU
B20: target 3 insC 3' of 13,insU 3' of 3 (mixed)
RNA 1: CACCCGUGCAAAAUUGCAGGGGUCUAAAACGACCUGAAUAUUUCAGAUCAAA
RNA 2: GGGAAUGGAUCCACAUCUACGAAUUCGUUUUUGAUCUGACAAUAUUCAGGUUCUGCAGAUCGGAAGAGCACACGU
B21: target 3 insA 3' of 8,insG 3' of 8 (mixed)
RNA 1: CACCCGUGCAAAAUUGCAGGGGUCUAAAACGACCUGAAUAUUUCAGAUCAAA
RNA 2: GGGAAUGGAUCCACAUCUACGAAUUCGUUUUUGAUCUGAAAUAUAGUCAGGUCUGCAGAUCGGAAGAGCACACGU
B22: target 3 insU 3' of 4,insA 3' of 2 (mixed)
RNA 1: CACCCGUGCAAAAUUGCAGGGGUCUAAAACGACCUGAAUAUUUCAGAUCAAA
RNA 2: GGGAAUGGAUCCACAUCUACGAAUUCGUUUUUGAUCUGAAAUAUUCAGUGUACUGCAGAUCGGAAGAGCACACGU
B23: target 1 C6A,C7G (mixed)
RNA 1: CACCCGUGCAAAAAUGCAGGGGUCUAAAACUGAGCGGAUAACCUCUCUAUGG
RNA 2: GGGAAUGGAUCCACAUCUACGAAUUCGUACCAUAGAGAGGUUAUGAGCUCACCGAGAUCGGAAGAGCACACGU
B24: target 1 C2G,A14C (mixed)
RNA 1: CACCCGUGCAAAAAUGCAGGGGUCUAAAACUGAGCGGAUAACCUCUCUAUGG
RNA 2: GGGAAUGGAUCCACAUCUACGAAUUCGUACCAUAGAGCGGUUAUCCGCUGACCGAGAUCGGAAGAGCACACGU

Molecular target: T1, EsCas13d, nuclease-dead
Test: crRNA (strand 1, pre-loaded); Mg2+; 40 mM Tris-HCl pH 7.5, 150 mM NaCl, 6 mM MgCl2, 1 mM DTT, 0.1% Tween-20, 0.2 mg/ml BSA; 25 C; 10 min per concentration, then washed
Settings: tags: His6-TwinStrep-SUMO cleaved; N-terminal SNAP kept (SNAP-Surface 488); label: 3' end held by stalled T7 RNA polymerase

First: B1
Second: B2
The Kd of the first is 4.4-fold higher: 57 ± 11.5 nM for the first, 13 ± 2.15 nM for the second.

B3 and B4 are within error of each other in Kd: 90.5 ± 25 nM for the first, 54.5 ± 18.5 nM for the second.

Compared with B5, B6 is 7.8-fold higher in Kd: 13.1 ± 0.95 nM for the first, 102 ± 23.5 nM for the second. The first binds more tightly here.

First: B7
Second: B8
The Kd of the first is 1.6-fold higher: 33.5 ± 8.5 nM for the first, 21.6 ± 2.85 nM for the second.

Going from B9 to B10, the Kd falls from 27.9 ± 2.9 nM to 4.45 ± 0.435 nM (6.3-fold).

B11 and B12 are within error of each other in Kd: 99 ± 21 nM for the first, 68 ± 21 nM for the second.

First: B13
Second: B14
The Kd of the first is 4.3-fold higher: 82 ± 34 nM for the first, 19 ± 3.25 nM for the second.

B15 and B16 are within error of each other in Kd: 50.5 ± 11.5 nM for the first, 57 ± 12 nM for the second.

B17 and B18 are within error of each other in Kd: 105 ± 42 nM for the first, 85 ± 26.5 nM for the second.

B19 and B20 are within error of each other in Kd: 44 ± 4.65 nM for the first, 32.5 ± 8 nM for the second.

Compared with B21, B22 is 12-fold lower in Kd: 53.5 ± 8.5 nM for the first, 4.65 ± 0.75 nM for the second. The second binds more tightly here.

First: B23
Second: B24
The Kd of the first is 6.5-fold lower: 6.86 ± 0.18 nM for the first, 44.8 ± 3.3 nM for the second.
